Measured values published in publication PMC12784347, “Structural insights into substrate binding, residue contributions, and catalytic mechanism of phosphopantetheine adenylyltransferase from Helicobacter pylori” (Bioscience Reports, 2025).
Positions count from the first letter of the chain named. Numbers in names are those of the source.

B1: Helicobacter pylori phosphopantetheine adenylyltransferase, wild type (enzyme)
chain: MQKIGIYPGTFDPVTNGHIDIIHRSSELFEKLIVAVAHSSAKNPMFSLDERLKMIQLATKSFKNVECVAFEGLLANLAKEYHCKVLVRGLRVVSDFEYELQMGYANKSLNHELETLYFMPTLQNAFISSSIVRSIIAHKGDASHLVPKEIYPLISKA
notes: Phosphopantetheine adenylyltransferase (PPAT; EC 2.7.3.3) of Helicobacter pylori; each monomer in the crystal structures comprises 157 residues; also called HpPPAT; WT HpPPAT
B2: Helicobacter pylori phosphopantetheine adenylyltransferase P8A mutant (enzyme)
chain: B1 chain with P8A
notes: Phosphopantetheine adenylyltransferase (PPAT; EC 2.7.3.3) of Helicobacter pylori with Pro8 replaced by alanine; also called HpPPAT P8A; HpPPAT mutant P8A

What was measured:
[1] = target: the molecule itself; test: crystal structure; HpPPAT:ATP; reservoir 17% PEG1000, 0.1 M citrate phosphate pH 4.2, 1.5 mM ATP, 0.2 M Li2SO4; space group P1, 12 copies in the asymmetric unit; 2.12 Å
[2] = target: the molecule itself; test: crystal structure; apo HpPPAT; hanging-drop vapor diffusion, 293K, protein 15 mg/ml in 20 mM Tris-HCl pH 7.9, 100 mM NaCl; reservoir 2.5 M NaCl, 0.1 M sodium acetate pH 4.5, 0.2 M Li2SO4; space group H3, two copies in the asymmetric unit; 1.98 Å
[3] = target: the molecule itself; test: crystal structure; HpPPAT P8A:dPCoA; reservoir 18% PEG550 MME, 0.2 M KF pH 7.4; space group P2(1)2(1)2, hexamer; 2.00 Å

| Protein | stoichiometry N [1] | stoichiometry N [2] | stoichiometry N [3] |
| --- | --- | --- | --- |
| B1 | 12 | 2 |  |
| B2 |  |  | 6 |
